The results in this text go back to PMC5548392.

The target of this assay is RAB21 (UniProt P35282). The experiment in a line: GST pull-down with purified proteins. Conditions: reference: RPH3A incubated with PKN1 without ATP; sites S234,S271.

For “RPH3A (Rabphilin 3A) (from UniProt P47708) RPH3A incubated with PKN1 and ATP”, the “binding against the reference” value is given as “stronger”.
